Experimental data published in patent US20250230234A1.

How the values were obtained:
[1] = biological target: human GPRC5D (full length, on cells) (human) (UniProt Q9NZD1); test: flow cytometry on FreeStyle 293-F cells expressing hGPRC5D; negative control
[2] = biological target: human GPRC5D-human GPRC5A chimera (Nterm) (human) (UniProt Q9NZD1); test: flow cytometry on FreeStyle 293-F cells expressing the chimera (Nter); negative control
[3] = biological target: human GPRC5D-human GPRC5A chimera (85-93) (human) (UniProt Q9NZD1); test: flow cytometry on FreeStyle 293-F cells expressing the chimera (aa85-aa93); negative control
[4] = biological target: human GPRC5D-human GPRC5A chimera (145-167) (human) (UniProt Q9NZD1); test: flow cytometry on FreeStyle 293-F cells expressing the chimera (aa145-aa167); negative control
[5] = biological target: human GPRC5D-human GPRC5A chimera (226-239) (human) (UniProt Q9NZD1); test: flow cytometry on FreeStyle 293-F cells expressing the chimera (aa226-aa239); negative control
Sequence of human GPRC5D-human GPRC5A chimera (226-239) (human) (Q9NZD1 other isoform, or with tags, fused parts or gaps mutant): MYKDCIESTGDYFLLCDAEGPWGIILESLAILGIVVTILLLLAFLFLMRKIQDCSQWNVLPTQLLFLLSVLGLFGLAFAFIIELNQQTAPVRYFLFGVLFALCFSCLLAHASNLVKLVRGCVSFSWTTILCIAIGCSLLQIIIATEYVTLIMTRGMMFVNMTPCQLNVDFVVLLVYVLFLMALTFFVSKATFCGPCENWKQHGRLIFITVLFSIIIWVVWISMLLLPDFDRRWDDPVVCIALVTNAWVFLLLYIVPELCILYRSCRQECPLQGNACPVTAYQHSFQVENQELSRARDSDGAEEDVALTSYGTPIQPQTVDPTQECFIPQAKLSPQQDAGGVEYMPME

Sequence of human GPRC5D-human GPRC5A chimera (Nterm) (human) (Q9NZD1 other isoform, or with tags, fused parts or gaps mutant): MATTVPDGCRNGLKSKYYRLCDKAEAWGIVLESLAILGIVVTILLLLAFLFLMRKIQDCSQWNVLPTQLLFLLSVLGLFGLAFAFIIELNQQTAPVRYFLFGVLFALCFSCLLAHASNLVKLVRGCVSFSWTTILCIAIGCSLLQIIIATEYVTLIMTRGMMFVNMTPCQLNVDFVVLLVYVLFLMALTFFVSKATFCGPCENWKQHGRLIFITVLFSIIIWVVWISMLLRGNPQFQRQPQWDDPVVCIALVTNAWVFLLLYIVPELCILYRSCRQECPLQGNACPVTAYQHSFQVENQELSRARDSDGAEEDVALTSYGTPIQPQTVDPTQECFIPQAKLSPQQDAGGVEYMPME
Sequence of human GPRC5D-human GPRC5A chimera (145-167) (human) (Q9NZD1 other isoform, or with tags, fused parts or gaps mutant): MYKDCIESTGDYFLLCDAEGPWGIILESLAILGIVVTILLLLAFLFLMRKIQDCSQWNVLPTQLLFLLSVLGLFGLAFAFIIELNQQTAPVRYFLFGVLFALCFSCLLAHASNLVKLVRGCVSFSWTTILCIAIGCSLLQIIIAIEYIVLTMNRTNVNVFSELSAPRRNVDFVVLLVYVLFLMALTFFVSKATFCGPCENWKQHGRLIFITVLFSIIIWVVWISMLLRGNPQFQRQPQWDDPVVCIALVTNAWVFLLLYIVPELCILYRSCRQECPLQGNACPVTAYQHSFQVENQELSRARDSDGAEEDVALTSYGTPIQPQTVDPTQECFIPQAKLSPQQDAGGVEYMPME
Sequence of human GPRC5D-human GPRC5A chimera (85-93) (human) (Q9NZD1 other isoform, or with tags, fused parts or gaps mutant): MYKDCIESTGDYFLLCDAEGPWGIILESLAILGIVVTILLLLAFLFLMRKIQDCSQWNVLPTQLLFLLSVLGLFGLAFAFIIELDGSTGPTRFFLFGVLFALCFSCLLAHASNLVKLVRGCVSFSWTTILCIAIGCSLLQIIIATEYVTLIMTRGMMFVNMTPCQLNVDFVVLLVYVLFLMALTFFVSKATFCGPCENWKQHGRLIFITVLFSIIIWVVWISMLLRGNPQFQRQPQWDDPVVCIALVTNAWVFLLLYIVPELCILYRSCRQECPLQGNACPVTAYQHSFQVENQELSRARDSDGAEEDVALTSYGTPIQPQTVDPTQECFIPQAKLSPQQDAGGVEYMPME
Sequence of human GPRC5D (full length, on cells) (human) (Q9NZD1 whole entry): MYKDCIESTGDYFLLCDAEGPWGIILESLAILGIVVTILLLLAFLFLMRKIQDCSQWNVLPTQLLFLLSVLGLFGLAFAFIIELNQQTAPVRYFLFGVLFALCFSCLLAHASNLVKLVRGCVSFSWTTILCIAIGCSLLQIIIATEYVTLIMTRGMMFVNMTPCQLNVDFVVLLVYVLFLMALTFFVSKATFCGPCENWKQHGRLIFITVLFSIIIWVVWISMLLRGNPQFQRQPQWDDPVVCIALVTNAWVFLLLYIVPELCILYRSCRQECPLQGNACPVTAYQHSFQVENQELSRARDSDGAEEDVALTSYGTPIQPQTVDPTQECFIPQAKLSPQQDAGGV

MFI [1]: 27400
MFI [2]: 24700
MFI [3]: 29700
MFI [4]: 32500
MFI [5]: 29800
Substance: Isotype control IgG1 in wildtype format (antibody to an irrelevant small molecule target)
